Patent publication US20250163167A1 (SYNTHEKINE, published 2025)

T1: human IL-10 receptor (hIL-10R alpha and beta chains) on HEK-Blue IL-10 reporter cells (human, UniProt Q13651 22-578; Q08334 20-325)
T1 sequence 1: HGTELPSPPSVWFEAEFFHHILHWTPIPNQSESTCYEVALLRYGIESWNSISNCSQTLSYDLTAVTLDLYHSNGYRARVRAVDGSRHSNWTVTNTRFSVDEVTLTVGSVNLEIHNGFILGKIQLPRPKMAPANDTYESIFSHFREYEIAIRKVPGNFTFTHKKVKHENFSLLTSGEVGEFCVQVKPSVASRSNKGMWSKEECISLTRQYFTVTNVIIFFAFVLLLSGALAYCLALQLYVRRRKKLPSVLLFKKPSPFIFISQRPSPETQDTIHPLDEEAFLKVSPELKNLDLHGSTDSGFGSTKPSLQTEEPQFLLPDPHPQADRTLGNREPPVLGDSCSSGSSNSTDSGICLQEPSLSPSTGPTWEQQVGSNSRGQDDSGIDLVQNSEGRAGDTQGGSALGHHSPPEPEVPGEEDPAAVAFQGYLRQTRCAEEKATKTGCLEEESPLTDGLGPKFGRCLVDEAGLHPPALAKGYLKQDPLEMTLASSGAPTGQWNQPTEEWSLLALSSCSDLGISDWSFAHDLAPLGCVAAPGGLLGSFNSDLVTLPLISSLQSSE
T1 sequence 2: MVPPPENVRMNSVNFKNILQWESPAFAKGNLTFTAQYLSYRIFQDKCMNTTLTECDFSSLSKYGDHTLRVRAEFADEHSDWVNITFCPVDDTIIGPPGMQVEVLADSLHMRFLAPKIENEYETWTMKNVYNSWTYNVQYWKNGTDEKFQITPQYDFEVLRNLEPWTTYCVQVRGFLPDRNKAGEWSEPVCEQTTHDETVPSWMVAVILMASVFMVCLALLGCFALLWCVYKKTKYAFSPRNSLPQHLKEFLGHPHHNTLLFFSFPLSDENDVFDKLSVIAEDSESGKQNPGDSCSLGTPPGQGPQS


Biological target: T1, human IL-10 receptor (hIL-10R alpha and …)
Experiment: cell-based or functional assay

| Binder | Abs 630 (25 nM) | Abs 630 (100 nM) |
| --- | --- | --- |
| IL10R binding molecule of SEQ ID NO: 305 (bispecific antibody) QVQLQESGGGSVQAGGSLRLSCAASGYTYSSGCMGWFRQAPGKEREAVAAINSDGSTSYADSVKGRFTISKDNAKNTLYLQMNSLKPEDTAMYYCAAEPYCSGGYPRWSVAEFGYWGQGTQVTVSSGGGSQVQLQESGGGSVQAGGSLRLSCAASRYLYSIDYMAWFRQSPGKEREPVAVIYTASGATFYPDSVKGRFTISQDNAKMTVYLQMNSLKSEDTAMYYCAAVRKTDSYLFDAQSFTYWGQGTQVTVSSASHHHHHH | 0.59 Abs 630 | 0.35 Abs 630 |
| IL10R binding molecule of SEQ ID NO: 304 (bispecific antibody) QVQLQESGGGSVQAGGSLRLSCAASGYSNCSYDMTWYRQAPGKEREFVSAIHSDGSTRYADSVKGRFFISQDNAKNTVYLQMNSLKPEDTAMYYCKTDPLHCRAHGGSWYSVRANYWGQGTQVTVSSGGGSQVQLQESGGGSVQTGGSLRLSCAASGYTYLRGCMGWFRQAPGKEREGVAVMDVVGDRRSYIDSVKGRFTISRDNAANSVYLQMDNLKPEDTAMYYCTAGPNCVGWRSGLDYWGQGTQVTVSSASHHHHHH | 1.96 Abs 630 | 2.06 Abs 630 |
| IL10R binding molecule of SEQ ID NO: 260 (bispecific antibody) QVQLQESGGGSVQAGGSLRLSCAASRYLYSIDYMAWFRQSPGKEREPVAVIYTASGATFYPDSVKGRFTISQDNAKMTVYLQMNSLKSEDTAMYYCAAVRKTDSYLFDAQSFTYWGQGTQVTVSSGGGSQVQLQESGGGSVEAGGSLRLSCAASGYTHSSYCMGWFRQAPGKEREGVAAIDVDGSTTYADSVKGRFTISKDNAKNTLYLQMNSLKPEDTGMYYCAAEFADCSSNYFLPPGAVRYWGQGTQVTVSSASHHHHHH | 0.49 Abs 630 | 0.39 Abs 630 |
| IL10R binding molecule of SEQ ID NO: 306 (bispecific antibody) QVQLQESGGGSVQAGGSLRLSCAASGYTYSSGCMGWFRQAPGKEREAVAAINSDGSTSYADSVKGRFTISKDNAKNTLYLQMNSLKPEDTAMYYCAAEPYCSGGYPRWSVAEFGYWGQGTQVTVSSGGGSQVQLQESGGGSVQAGGSLRLSCAASRFTYSSYCMGWFRQAPGKEREGVASIDSDGSTSYTDSVKGRFTISKDNAKNTLYLQMNSLKPEDTAMYYCALDLMSTVVPGFCGFLLSAGMDYWGKGTQVTVSSASHHHHHH | 0.69 Abs 630 | 0.49 Abs 630 |
| IL10R binding molecule of SEQ ID NO: 259 (bispecific antibody) QVQLQESGGGSVQAGGSLRLSCAASRYLYSIDYMAWFRQSPGKEREPVAVIYTASGATFYPDSVKGRFTISQDNAKMTVYLQMNSLKSEDTAMYYCAAVRKTDSYLFDAQSFTYWGQGTQVTVSSGGGSQVQLQESGGGSVQAGGSLRLSCTVSRYTASVNYMGWFRQAPGKEREGVATIFTGAGTTYYANSVKGRFTISRDNAKNTAYLQMNSLKPEDTAIYYCAVDFRGGLLYRPAYEYTYRGQGTQVTVSSASHHHHHH | 1.85 Abs 630 | 1.13 Abs 630 |
| IL10R binding molecule of SEQ ID NO: 307 (bispecific antibody) QVQLQESGGGSVQAGGSLRLSCAASGYTYSSGCMGWFRQAPGKEREAVAAINSDGSTSYADSVKGRFTISKDNAKNTLYLQMNSLKPEDTAMYYCAAEPYCSGGYPRWSVAEFGYWGQGTQVTVSSGGGSQVQLQESGGGSVQAGGSLRLSCAASGYTYSMYCMGWFRQAPGKEREGVAQINSDGSTSYADSVKGRFTISKDNAKNTLYLQMNSLKPEDTAMYYCAADSRVYGGSWYERLCGPYTYEYNYWGQGTQVTVSSASHHHHHH | 0.44 Abs 630 | 0.34 Abs 630 |

Results, then the binder that gave them:

| Abs 630 (25 nM) | Abs 630 (100 nM) | Binder |
| --- | --- | --- |
| 0.48 Abs 630 | 0.39 Abs 630 | IL10R binding molecule of SEQ ID NO: 308 (bispecific antibody) QVQLQESGGGSVQAGGSLRLSCAASGYTYSSGCMGWFRQAPGKEREAVAAINSDGSTSYADSVKGRFTISKDNAKNTLYLQMNSLKPEDTAMYYCAAEPYCSGGYPRWSVAEFGYWGQGTQVTVSSGGGSQVQLQESGGGSVQAGGSLRLSCAVSGYAYSTYCMGWFRQAPGKEREGVAAIDSGGSTSYADSVKGRFTISKDNAKNTLYLRMNSLKPEDTAMYYCAAVPPPPDGGSCLFLGPEIKVSKADFRYWGQGTQVTVSSASHHHHHH |
| 0.51 Abs 630 | 0.44 Abs 630 | IL10R binding molecule of SEQ ID NO: 310 (bispecific antibody) QVQLQESGGGSVQAGGSLRLSCAASGYTYSSGCMGWFRQAPGKEREAVAAINSDGSTSYADSVKGRFTISKDNAKNTLYLQMNSLKPEDTAMYYCAAEPYCSGGYPRWSVAEFGYWGQGTQVTVSSGGGSQVQLQESGGGSVQAGGSLRLSCGASGYTYSSYCMGWFRQVPGKEREGVAVIDSDGSTSYADSVKGRFTISKDNGKNTLYLQMNSLKPEDTAMYYCAADLGHYRPPCGVLYLGMDYWGKGTQVTVSSASHHHHHH |
| 0.47 Abs 630 | 0.39 Abs 630 | IL10R binding molecule of SEQ ID NO: 313 (bispecific antibody) QVQLQESGGGSVQAGGSLRLSCAASGYTYSSYCMGWFRQAPGKEREGVAHIDSDGSTSYADSVKGRFTISKDNAKNTLYLQMNSLKPEDTAMYYCAADPIPGPGYCDGGPNKYWGQGTQVTVSSGGGSQVQLQESGGGSVQAGGSLRLSCAASRFTYSSYCMGWFRQAPGKEREGVASIDSDGSTSYTDSVKGRFTISKDNAKNTLYLQMNSLKPEDTAMYYCALDLMSTVVPGFCGFLLSAGMDYWGKGTQVTVSSASHHHHHH |
| 0.45 Abs 630 | 0.37 Abs 630 | IL10R binding molecule of SEQ ID NO: 309 (bispecific antibody) QVQLQESGGGSVQAGGSLRLSCAASGYTYSSGCMGWFRQAPGKEREAVAAINSDGSTSYADSVKGRFTISKDNAKNTLYLQMNSLKPEDTAMYYCAAEPYCSGGYPRWSVAEFGYWGQGTQVTVSSGGGSQVQLQESGGGSVQAGGSLRLSCTVSGYTYSSNCMGWFRQAPGKEREGVATIYTGGGNTYYADSVKGRFTISQDNAKNTVYLQMNNLKPEDTAMYYCAAEPLSRVYGGSCPTPTFDYWGQGTQVTVSSASHHHHHH |
| 0.48 Abs 630 | 0.39 Abs 630 | IL10R binding molecule of SEQ ID NO: 312 (bispecific antibody) QVQLQESGGGSVQAGGSLRLSCAASGYTYSSYCMGWFRQAPGKEREGVAHIDSDGSTSYADSVKGRFTISKDNAKNTLYLQMNSLKPEDTAMYYCAADPIPGPGYCDGGPNKYWGQGTQVTVSSGGGSQVQLQESGGGSVQAGGSLRLSCAASRYLYSIDYMAWFRQSPGKEREPVAVIYTASGATFYPDSVKGRFTISQDNAKMTVYLQMNSLKSEDTAMYYCAAVRKTDSYLFDAQSFTYWGQGTQVTVSSASHHHHHH |
| 2.08 Abs 630 | 2.04 Abs 630 | wild-type human IL-10 (Recombinant Animal-Free Human IL-10, Shenandoah Biotechnology) (ligand) SPGQGTQSENSCTHFPGNLPNMLRDLRDAFSRVKTFFQMKDQLDNLLLKESLLEDFKGYLGCQALSEMIQFYLEEVMPQAENQDPDIKAHVNSLGENLKTLRLRLRRCHRFLPCENKSKAVEQVKNAFNKLQEKGIYKAMSEFDIFINYIEAYMTMKIRN |
| 0.48 Abs 630 | 0.4 Abs 630 | IL10R binding molecule of SEQ ID NO: 311 (bispecific antibody) QVQLQESGGGSVQAGGSLRLSCAASGYTYSSGCMGWFRQAPGKEREAVAAINSDGSTSYADSVKGRFTISKDNAKNTLYLQMNSLKPEDTAMYYCAAEPYCSGGYPRWSVAEFGYWGQGTQVTVSSGGGSQVQLQESGGGSVQAGGSLRLSCAASGYSNCSYDMTWYRQAPGKEREFVSAIHSDGSTRYADSVKGRFFISQDNAKNTVYLQMNSLKPEDTAMYYCKTDPLHCRAHGGSWYSVRANYWGQGTQVTVSSASHHHHHH |
